# From the DeepSol protein solubility set
# Assay: soluble on expression in E. coli; label from the status in PepcDB or PDB records
row,Sequence,soluble on expression in E. coli
1,MDPKAEGNGENITETAAGNVETSDFVNLKRQKREGVNSTGMSEIDMTGSQETPEHNMHGSPTHTDDLGPRLDADMLDSQSSHVSSSAQGNRSEVENELSNLFAKMALPGHDRRTDEYILVRQTGQDKFAGTTKCNLDHLPTKAEFNASCRLYRDGVGNYYPPPLAFERIDLPEQLAAQLHNLEPREQSKQCFQYKLEVWNRAHAEMGITGTDIFYQTDKNIKLDRNYKLRPEDRYIQTEKYGRREIQKRYEHQFQAGSLLPDILIKTPQNDIHFSYRFAGDAYANKRFEEFERAIKTKYGSDTEIKLKSKSGIMHDSKYLESWERGSADIRFAEFAGENRAHNKQFPAATVNMGRQPDGQGGMTRDRHVSVDYLLQNLPNSPWTQALKEGKLWDRVQVLARDGNRYMSPSRLEYSDPEHFTQLMDQVGLPVSMGRQSHANSVKFEQFDRQAAVIVADGPNLREVPDLSPEKLQQLSQKDVLIADRNEKGQRTGTYTNVVEYERLMMKLPSDAAQLLAEPSDRYSRAFVRPEPALPPISDSRRTYESRPRGPTVNSL,soluble
2,MTRCPERPGFMPRLSSHHFSRSRLSAPLLASGARVKLLCAPAGSGKTALLAECLQQAPETCRVSWLPLSGGRHSPQGLCAALAQALGLERDDEATVLQHLAHLQAPAWIFIDDYCRVAAADLDLLLDRLLSLDNPQLTWWLGCRRRPLCNWPRLLLDDQLFELDGPALAFSQIEIEQLLQRLPQPLCAQTASRILQRSGGWCAGVRIALLEGSELTIQPCKPGRPNTLLEYLEHELFSVLPAELAQVWQVLAHLPRFNAELCEHLFGVGEGAQYLRTLQDMACFIEPWDGGGDWLQVFPPLARLMRDE,not soluble
3,MSLTVIRKQDVISSVADALQYISYYHPLDFVKALEKAYQREESQAAKDSIAQILINSRMSAEGHRPICQDTGIVTCFVNIGMGVQWDSTDMTVQQMVDEGVRQAYTNPDNPLRASVLMDPAGKRINTKDNTPAVVHINMVPGDKVDIQIAAKGGGSENKTKMVMLNPSDDIAEWVEKTVPLMGAGWCPPGMLGIGIGGTAEKAAVLAKEALMEHIDIHELIERGPQNAEEELRLDIFNRVNKLGIGAQGLGGLTTVVDVKIKSAPTHAASKPVCMIPNCAATRHVHFTLDGSGPAQLTPPKLEDWPQITWEAGANTRRVNLDNITREEIQTWKTGETVLLSGKILTGRDAAHKRIQTMLQKGEKLPDSVDLKDKFIYYVGPVDAVGDEVVGPAGPTTSTRMDKFTDMMLEEVGVMGMIGKAERGPATVESIKKHKAVYLMAVGGAAYLVAKAIKKARVVAFEDLGMEAIYEFEVEDMPVTVAVDSTGANAHQIGPDTWRVKIAEAAKEGGSHHHHHH,soluble
4,AAVEDNHLLIKAVQNEDVDLVQQLLEGGANVNFQEEEGGWTPLHNAVQMSREDIVELLLRHGADPVLRKKNGATPFLLAAIAGSVKLLKLFLSKGADVNECDFYGFTAFMEAAVYGKVKALKFLYKRGANVNLRRKTKEDQERLRKGGATALMDAAEKGHVEVLKILLDEMGADVNACDNMGRNALIHALLSSDDSDVEAITHLLLDHGADVNVRGERGKTPLILAVEKKHLGLVQRLLEQEHIEINDTDSDGKTALLLAVELKLKKIAELLCKRGASTDCGDLV,soluble
5,MMINFEAIIGIEVHVVLNTATKMFSPAPNQAQNATPNQFINAIDLGLPGTMPQVNEQAVQKALILADALNMQRVQPVLVFDRKHYFYQDLPKGFQITQQNFPIAQNGYVEIVENNKAQRIIIERFHLEEDTAKQHFVDGQILLDFNRCGAPLIEVVTAPVIKSAKQSKAYLQKLRQILIVNNISNAKLEDGSMRSDCNVSVRLKGQTAFGTKVEIKNINSLNNVEKAIDLEIARQVKALIKGEPVQQVTLTYDDKTNTNVFMRKKDNSVDYRYFIEPNIMSSNIDELLQKPNKAFNLTEFFTKLKEAGVNEQLNQLVVDDLTLFNAYTKINSVINSPQDTIRWLCIELMGQLNKLQKPLKDKTIDHLIILIQMVQKGTVNQKQAKQLIELMLDNGQDPQSLAKLHNLEQITDEKQLTQIIQQIFKENEGEILKNLDRVERIQKLIIGQVMQRTHNRANPQQVFIIVEKLLHDFSERAS,not soluble
6,MGSDKIHHHHHHSSCGNDESDPDSTVTIAMATVEKQPQYDAPYLVLDNGEKLWVVQHIVPYRDLKAGERIFGNYSFLEAGESGFAYNIRLNDYTLVPVQKIIGLNPDNMDSIGNMKVQIKDMWPSDDYLNVRFMLNFPSPQKPILNLVVNEMIPWTKDGYAHLELRYNNNGSQGRLVPGMVSFKLDDYSPENSELKGIKVLVNPVDGEEKTYIFSYPLTGEDVPGFNPLDLAELK,not soluble
7,MIRQTPLEKRYDKLGPHIVTALKKRYFDAYYCKTRNEALQQILDLIPQNHVVSWGGSETLKEMGVQTAVREKGFKVIDRDLAKTPEERTEIMRQALLCDTFLMSSNAISEDGQLFNIDGNGNRVAAMIFGPKNVIVVAGMNKIVKNIDDAIQRTRTVASPAVVQRFQDVNTPCYINGSCIDCTSPESICAYMVTTRISRPAKKIKVILVGENLGLLEHHHHHH,soluble
8,MRRKETLQETPLTYQELASKILPELHLLAQEAGIEGYKRMKKDQLIMALLERQTQGEGLRLVKGYLEISQDGYGFLTENLHNLESRVAIVSAGLIKQYALRAGDYVVGQARPPRENERYATLLKVEAVNNLDPEAAKNRPRFDELTPQFPDRQIRLETTPDELSTRVIDLLAPIGRGQRGLIVAPPKAGKTTLLKKIANAVLKNEPDIKVIVLLIDERPEEVTDFRESVQGAEVIASTFDEPPQNHIRVAEFVHERAKRIVEEGGHVMILLDSITRLARANNLVTPPTGRTLSGGLDSAALYFPKRFLGAARNIRGGGSLTILATALVETGSRMDDVIFEEFKGTGNMELHLSRRLEERRIFPAIDILKSGTRREELLLGEEVTHKMWLLRKVLADMDPAEAMEMLLARLARTKNNKEFLASLAAR,soluble
9,MGSDKIHHHHHHMPRVIKHPEIRREDILDHAQALFLTQGYDRASLNDVIASAGISKGAFYHYFASKEALLEALADRFARQALAGVQGVVDDPGLDPLGRLNGLLSQSRQAKIETAAEAWALFETMFRPENLVLFHRINLAANASFSPLLVKIIRQGVEDGTFRTFDPEGVADIVMQFGLATHDVVAKAIAGGSDADMEVAIEVLEKRVRLYEIALDRILGLPDGSIRIGEPGYIRAVMTARRKADKAR,not soluble
10,MSLAWLISEFASVGDVTVRALRYYDKINLLKPSDYTEGGHRLYTKDDLYVLQQIQSFKHLGFSLGEIQNIILQRDIETEVFLRQMHFQREVLLAEQERIAKVLSHMDEMTKKFQKEERVNVALFSSFLQTFIWEKENKEWLEEHFSTESIQAFYNNKELKEKFDRRFMDVIGKLKKYKEEEKDPSHHDVQVTLKEFFHLIEKITDYLDISQSEVVSVIKQSKISMAEFPTLFTNEEEQYIKEAMNKEGHHHHHH,soluble
11,MGSDKIHHHHHHMKRMKGIVYGGLLSVVFVMSGCSGSQKEGRDSKEIPVEIVKVAKTVPADTRNYVGTVEEVVSSSISFQVMGNVERVLVGEGQKVREGQLLAVLDKATLENAYNASAASLRQAEDAYARMRTLHENKSLPDMKWVEVESKLEQARSMERISRKNLEDRNLYAPFGGVIGKRMVEAGENVQPGQPVFSLLRIETVNVKIAVPENEVATLGDQAAMIKVAALGGQCFEGKVTEKGIVANPISHTYEAKIRLENPSGALLPGMVCDVRLSGEESVPAITLPNNAVLIANDGGRFVWKVVDGKAKATPVRTGDLTEQGLFILEGLNEGDIVVIGGYQKISEGMRVRAL,not soluble
12,MAHHHHHHMRPLASFRGNTQTMLYTPVQDKYSILMEDDKLRVGASSMQGWRSTMEDAHTIHLSLPGLPSHMASEDGAIAAVFDGHCGSKTSQTSAIRILEWITSMEAFGEGNMEKAIRDGFIAGDLAMQRSSPNEMSGCTGNCVLIVENHLYCGNVGDSRAVLCRDGTAIPLSEDHKPNLPRERERVLRAGGYIHNGRVNGVLSLSRALGDFAFKDSDLPPEAQAVTAIPDVVHLELTPQDEFVIIACDGVWDMVTNEKAVEIVRSEVADHSDLSLACERLMDACLSKVSTGAGTDNMTVIILQFKSFFLKKVESRFGAISCNAAE,not soluble
